Legend:
StrepTag II = conditions: cited from earlier work
StrepTactin = assay: optical tweezers (single-molecule pulling); STN covalently coupled to polystyrene beads; tST-DNA-biotin held by its biotin on NTV-coated beads; tST-STN linkage formed in situ; stretched and relaxed at 50 nm/s to just beyond DNA overstretching at about 65 pN until the connection broke; connections that broke below 20 pN disregarded; N = 111

Sequence of Streptavidin (P22629 25-183): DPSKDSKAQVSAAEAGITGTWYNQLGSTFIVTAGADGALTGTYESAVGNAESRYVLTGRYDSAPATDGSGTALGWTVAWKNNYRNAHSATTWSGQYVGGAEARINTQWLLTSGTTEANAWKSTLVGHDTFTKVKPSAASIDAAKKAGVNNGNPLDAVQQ

Row | Substance | Kd (StrepTag II) [µM] | average rupture force (StrepTactin) [pN] | fraction of times the tether survives overstretching (first pull) (StrepTactin) [%] | fraction of times the tether survives overstretching (subsequent pulls) (StrepTactin) [%]
1 | Streptavidin (from UniProt P22629) | 72 | – | – | –
2 | tST-DNA-biotin (tandem of two StrepTag II peptides linked to 2553 bp dsDNA, biotinylated at the other DNA end) | – | > 65 | 77 | 87
